According to article PMC10397247:
Values belong to the binder of their own block, whether it stands above or below them.

Columns and labels:
4H2162-bA = molecular target: T1, 4H2162-bA; test: two-hybrid library CCNG1;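 further: natural log of median RNA to DNA barcode read ratio; higher means stronger binding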
T1 chain: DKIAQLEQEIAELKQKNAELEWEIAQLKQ

4H2233-bA = molecular target: T2, 4H2233-bA; test: two-hybrid library CCNG1;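 further: natural log of median RNA to DNA barcode read ratio; higher means stronger binding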
T2 chain: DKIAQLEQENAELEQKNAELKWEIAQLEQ

4H2253-bA = molecular target: T3, 4H2253-bA; test: two-hybrid library CCNG1;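 further: natural log of median RNA to DNA barcode read ratio; higher means stronger binding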
T3 chain: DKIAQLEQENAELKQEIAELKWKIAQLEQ

4H235-bA = molecular target: T4, 4H235-bA; test: two-hybrid library CCNG1;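 further: natural log of median RNA to DNA barcode read ratio; higher means stronger binding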
T4 chain: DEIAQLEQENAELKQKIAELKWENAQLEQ

4H2444-bA = molecular target: T5, 4H2444-bA; test: two-hybrid library CCNG1
T5 chain: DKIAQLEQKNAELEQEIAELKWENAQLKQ

4H2518-bA = molecular target: T6, 4H2518-bA; test: two-hybrid library CCNG1
T6 chain: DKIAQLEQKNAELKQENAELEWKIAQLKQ

4H2585-bA = molecular target: T7, 4H2585-bA; test: two-hybrid library CCNG1
T7 chain: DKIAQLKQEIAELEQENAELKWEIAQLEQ

4H264-bA = molecular target: T8, 4H264-bA; test: two-hybrid library CCNG1
T8 chain: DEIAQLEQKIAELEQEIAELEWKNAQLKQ

4H2760-bA = molecular target: T9, 4H2760-bA; test: two-hybrid library CCNG1
T9 chain: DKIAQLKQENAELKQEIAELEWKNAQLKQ

4H2859-bA = molecular target: T10, 4H2859-bA; test: two-hybrid library CCNG1
T10 chain: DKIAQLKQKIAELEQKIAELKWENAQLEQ

4H2931-bA = molecular target: T11, 4H2931-bA; test: two-hybrid library CCNG1
T11 chain: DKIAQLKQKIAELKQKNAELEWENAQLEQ

4H3041-bA = molecular target: T12, 4H3041-bA; test: two-hybrid library CCNG1
T12 chain: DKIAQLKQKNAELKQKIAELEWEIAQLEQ

4H3297-bA = molecular target: T13, 4H3297-bA; test: two-hybrid library CCNG1
T13 chain: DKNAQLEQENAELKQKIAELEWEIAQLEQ

4H3364-bA = molecular target: T14, 4H3364-bA; test: two-hybrid library CCNG1
T14 chain: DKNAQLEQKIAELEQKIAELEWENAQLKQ

4H3381-bA = molecular target: T15, 4H3381-bA; test: two-hybrid library CCNG1
T15 chain: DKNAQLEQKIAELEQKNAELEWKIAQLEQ

4H349-bA = molecular target: T16, 4H349-bA; test: two-hybrid library CCNG1
T16 chain: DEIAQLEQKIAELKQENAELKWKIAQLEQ

4H56-bA = molecular target: T17, 4H56-bA; test: two-hybrid library CCNG1
T17 chain: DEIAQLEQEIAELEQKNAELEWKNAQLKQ

4H730-bA = molecular target: T18, 4H730-bA; test: two-hybrid library CCNG1
T18 chain: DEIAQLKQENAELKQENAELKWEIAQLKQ

4H796-bA = molecular target: T19, 4H796-bA; test: two-hybrid library CCNG1
T19 chain: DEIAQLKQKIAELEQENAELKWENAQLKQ

4H855-bH = molecular target: T20, 4H855-bH; test: two-hybrid library CCNG1
T20 chain: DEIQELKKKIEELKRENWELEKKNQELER

4H932-bA = molecular target: T21, 4H932-bA; test: two-hybrid library CCNG1
T21 chain: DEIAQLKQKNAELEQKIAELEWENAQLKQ

4H949-bA = molecular target: T22, 4H949-bA; test: two-hybrid library CCNG1
T22 chain: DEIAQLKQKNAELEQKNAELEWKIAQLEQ

P4 = molecular target: T23, P4; test: two-hybrid library CCmax; conditions: mean of both orientations
T23 chain: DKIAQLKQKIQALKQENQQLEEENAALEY

P4SN = molecular target: T24, P4SN; test: two-hybrid library CCmax; conditions: mean of both orientations
T24 chain: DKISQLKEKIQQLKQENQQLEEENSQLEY

4H118-bN = molecular target: T25, 4H118-bN; test: two-hybrid library CCNG1
T25 chain: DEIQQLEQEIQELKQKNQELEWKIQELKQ

4H170-bN = molecular target: T26, 4H170-bN; test: two-hybrid library CCNG1
T26 chain: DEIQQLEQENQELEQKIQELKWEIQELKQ

4H1831-bN = molecular target: T27, 4H1831-bN; test: two-hybrid library CCNG1
T27 chain: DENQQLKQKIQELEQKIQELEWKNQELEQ

4H2586-bN = molecular target: T28, 4H2586-bN; test: two-hybrid library CCNG1
T28 chain: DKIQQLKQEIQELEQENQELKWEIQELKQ

4H2627-bN = molecular target: T29, 4H2627-bN; test: two-hybrid library CCNG1
T29 chain: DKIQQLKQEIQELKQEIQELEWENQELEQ

4H2673-bN = molecular target: T30, 4H2673-bN; test: two-hybrid library CCNG1
T30 chain: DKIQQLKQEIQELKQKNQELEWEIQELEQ

4H2702-bN = molecular target: T31, 4H2702-bN; test: two-hybrid library CCNG1
T31 chain: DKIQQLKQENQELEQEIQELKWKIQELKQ

4H3010-bN = molecular target: T32, 4H3010-bN; test: two-hybrid library CCNG1
T32 chain: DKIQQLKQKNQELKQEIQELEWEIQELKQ

4H3112-bN = molecular target: T33, 4H3112-bN; test: two-hybrid library CCNG1
T33 chain: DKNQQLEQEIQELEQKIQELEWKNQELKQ

4H3427-bN = molecular target: T34, 4H3427-bN; test: two-hybrid library CCNG1
T34 chain: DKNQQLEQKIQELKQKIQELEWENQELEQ

4H346-bN = molecular target: T35, 4H346-bN; test: two-hybrid library CCNG1
T35 chain: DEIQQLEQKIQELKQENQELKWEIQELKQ

4H3926-bN = molecular target: T36, 4H3926-bN; test: two-hybrid library CCNG1
T36 chain: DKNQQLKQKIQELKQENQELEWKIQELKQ

4H4073-bN = molecular target: T37, 4H4073-bN; test: two-hybrid library CCNG1
T37 chain: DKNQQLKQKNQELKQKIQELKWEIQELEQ

4H457-bN = molecular target: T38, 4H457-bN; test: two-hybrid library CCNG1
T38 chain: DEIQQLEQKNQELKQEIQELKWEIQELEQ

4H575-bN = molecular target: T39, 4H575-bN; test: two-hybrid library CCNG1
T39 chain: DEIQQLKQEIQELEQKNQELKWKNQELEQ

4H683-bN = molecular target: T40, 4H683-bN; test: two-hybrid library CCNG1
T40 chain: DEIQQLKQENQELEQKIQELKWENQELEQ

4H754-bN = molecular target: T41, 4H754-bN; test: two-hybrid library CCNG1
T41 chain: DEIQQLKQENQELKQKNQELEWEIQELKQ

4H780-bN = molecular target: T42, 4H780-bN; test: two-hybrid library CCNG1
T42 chain: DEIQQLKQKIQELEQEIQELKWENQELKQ

4H797-bN = molecular target: T43, 4H797-bN; test: two-hybrid library CCNG1
T43 chain: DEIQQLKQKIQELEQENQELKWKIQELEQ

4H855-bN = molecular target: T44, 4H855-bN; test: two-hybrid library CCNG1
T44 chain: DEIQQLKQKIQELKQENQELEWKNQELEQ

4H918-bN = molecular target: T45, 4H918-bN; test: two-hybrid library CCNG1
T45 chain: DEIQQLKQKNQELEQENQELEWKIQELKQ

4H953-bN = molecular target: T46, 4H953-bN; test: two-hybrid library CCNG1
T46 chain: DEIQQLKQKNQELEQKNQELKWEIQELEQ

4H968-bN = molecular target: T47, 4H968-bN; test: two-hybrid library CCNG1
T47 chain: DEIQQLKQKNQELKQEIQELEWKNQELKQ

O15-bS = molecular target: T48, O15-bS; test: two-hybrid library CCNG1
T48 chain: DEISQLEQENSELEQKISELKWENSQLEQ

interaction score (4H2162-bA): 0.667 | interaction score (4H2233-bA): 0.431 | interaction score (4H2253-bA): -0.158 | interaction score (4H235-bA): 0.118 | interaction score (4H2444-bA): 0.102 | interaction score (4H2518-bA): 0.642 | interaction score (4H2585-bA): -0.85 | interaction score (4H264-bA): -1.08 | interaction score (4H2760-bA): -0.382 | interaction score (4H2859-bA): 0.326 | interaction score (4H2931-bA): 1.13 | interaction score (4H3041-bA): 1.37 | interaction score (4H3297-bA): -0.125 | interaction score (4H3364-bA): -0.464 | interaction score (4H3381-bA): -1.2 | interaction score (4H349-bA): 0.82 | interaction score (4H56-bA): 0.371 | interaction score (4H730-bA): 0.193 | interaction score (4H796-bA): -1.31 | interaction score (4H855-bH): -2.4 | interaction score (4H932-bA): -1.48 | interaction score (4H949-bA): -0.448
B1: 4H2162-bA (peptide)
chain: DKIAQLEQEIAELKQKNAELEWEIAQLKQ

interaction score (P4): 0.871 | interaction score (P4SN): 1.63
B2: P3 (peptide)
chain: DEIQQLEEEIAQLEQKNAALKEKNQALKY

interaction score (4H118-bN): 0.139 | interaction score (4H170-bN): -1.27 | interaction score (4H1831-bN): -0.392 | interaction score (4H2586-bN): 0.735 | interaction score (4H2627-bN): 0.463 | interaction score (4H2673-bN): 1.25 | interaction score (4H2702-bN): 0.0476 | interaction score (4H3010-bN): 2.35 | interaction score (4H3112-bN): -0.413 | interaction score (4H3427-bN): -0.395 | interaction score (4H346-bN): -0.129 | interaction score (4H3926-bN): 1.02 | interaction score (4H4073-bN): -1.59 | interaction score (4H457-bN): -1.63 | interaction score (4H575-bN): -0.336 | interaction score (4H683-bN): -0.936 | interaction score (4H754-bN): -0.655 | interaction score (4H780-bN): -0.129 | interaction score (4H797-bN): -0.885 | interaction score (4H855-bN): 0.221 | interaction score (4H918-bN): -0.314 | interaction score (4H953-bN): -0.648 | interaction score (4H968-bN): 0.0583 | interaction score (O15-bS): -1.04
B3: 4H118-bN (peptide)
chain: DEIQQLEQEIQELKQKNQELEWKIQELKQ
